In assay [1] the target is T1, recombinant human IL4Rα-his protein (in house made) (human, UniProt P24394 26-232, limits assumed).
T1 construct: also called Human IL4Ra-his
Put plainly: capture ELISA, biotin-IL4Rα-his. The method, then: (§1) Plates were washed once with wash buffer (PBS+0.05% w/v Tween-20, PBST) and then blocked with 200 μl/well blocking buffer (5% w/v non-fatty milk in PBST) for 2 hours at 37° C. Plates were washed again and incubated with 100 μl/well serially diluted anti-IL4Rα antibodies of the disclosure, the benchmark or negative control hIgG (human immunoglobulin (pH4) for intravenous injection, Hualan Biological Engineering Inc.) (5-fold dilution in 2.5% w/v non-fatty milk in PBST, starting at 66.7 nM) for 40 minutes at 37° C., and then washed 4 times again. Plates containing captured anti-IL4Rα antibodies were incubated with biotin-labeled human IL4Rα-his protein (in house made with SEQ ID NO: 57, 0.14 nM in 2.5% w/v non-fatty milk in PBST, 100 μl/well) for 40 minutes at 37° C., washed 4 times, and incubated with streptavidin conjugated HRP (1:10000 dilution in PBST, Jackson Immuno Research, Cat #016-030-084, 100 μl/well) for 40 minutes at 37° C. After a final wash, plates were incubated with 100 μl/well ELISA substrate TMB (Innoreagents, Cat #TMB-S-002). The reaction was stopped in 10 minutes at 25° C. with 50 μl/well 1M H₂SO₄, and the absorbance was read at 450 nm. Data was analyzed using Graphpad Prism software and EC₅₀ values were reported.
In general terms: An ELISA detects its analyte on a solid surface through an enzyme-linked reagent.

Assay [2] has as its target T2, cynomolgus monkey IL4Rα-his protein (cynomolgus monkey, UniProt A0A2K5V580 33-239).
T2 construct: Bought protein; also called Cynomolgus IL4Rα; Cyno-IL4Rα-his; not shown: his tag
Nature of the assay: indirect ELISA, coated cyno IL4Rα-his. As for the experimental part:
The anti-IL4Rα antibodies' cross-reaction with cynomolgus IL4Rα proteins or cal-IL4Rα-his proteins were measured. Briefly, 96-well micro plates were coated with 2 μg/ml cynomolgus IL4Rα-his protein (Sino biological inc., Cat #90897—C08H) or 0.2 μg/ml cal-IL4Rα-his protein (Custom made by Sino biological inc., Cat #BAX2) in carbonate/bicarbonate buffer (pH 9.6), 100 μl/well, for 2 hours at 37° C. ELISA plates were washed once with wash buffer (PBS+0.05% w/v Tween-20, PBST) and then blocked with 200 μl/well blocking buffer (5% w/v non-fatty milk in PBST) for 2 hours at 37° C. Plates were washed again and incubated with 100 μl/well serially diluted anti-IL4Rα antibodies of the disclosure or controls (0.004-66.7 nM, 5-fold serial dilution in 2.5% w/v non-fatty milk in PBST, starting at 66.7 nM) for 40 minutes at 37° C. […] After a final wash, plates were incubated with 100 μl/well TMB (Innoreagents). The reaction was stopped 3-10 minutes later at 25° C. with 50 μl/well 1M H₂SO₄, and the absorbance was read at 450 nm. Data was analyzed using Graphpad Prism software and EC₅₀ values were reported.

For assay [3], the target named is T3, human IL4Rα expressed on 293F-IL4Rα cells (human, UniProt P24394 26-825).
T3 construct: whole, on cells; also called cell surface human IL4Rα
Put plainly: flow cytometry on 293F-IL4Rα cells. The method, then: (§2) Then, 2×10⁵ cells per well in 96 well-plates were incubated in 100 μL of the anti-IL4Rα antibodies or controls of various concentrations (starting at 80 nM with a 4-fold serial dilution) in FACS buffer for 40 minutes on ice. […] Following an incubation of 40 minutes at 4° C. in dark, cells were washed three times and resuspended in FACS buffer. Fluorescence was measured using a Becton Dickinson FACS Canto II-HTS equipment. Data was analyzed using Graphpad Prism software and EC₅₀ values were reported.
Background: In flow cytometry, cells or beads pass a laser one at a time.

The target in assay [4] is T1, recombinant human IL4Rα-his protein (in …). Put plainly: competitive ELISA, blocks biotin-IL4 binding to coated IL4Rα-his. As for the experimental part:
The activity of the anti-IL4Rα antibodies of the disclosure to block IL4-IL4Rα interaction was measured in a competitive ELISA assay. Briefly, 100 μl human IL4Rα-his proteins (prepared in-house with SEQ ID NO: 57) were coated on 96-well micro plates at 2 μg/mL in PBS overnight at 4° C. The next day, plates were washed with wash buffer (PBS+0.05% w/v Tween-20, PBST), and blocked with 5% w/v non-fatty milk in PBST for 2 hours at 37° C. Plates were then washed again using wash buffer.
Serially diluted anti-IL4Rα antibodies or the controls (starting at 80 nM with a 4-fold serial dilution) in 2.5% w/v non-fatty milk in PBST, 100 μl per well, were added to the IL4Rα bound plates, and incubated with the human IL4Rα-his proteins at 37° C. for 40 minutes. Plates were washed 4 times using wash buffer, and then added and incubated for 40 minutes at 37° C. with 100 μl/well of 0.56 nM biotin-labeled human IL4 protein (Sino biological inc., Cat #11846-HNAE). Plates were washed again using wash buffer. Thereafter, the plates were added with 100 μl/well of streptavidin conjugated HRP (1:10000 dilution in PBST buffer, Jackson Immunoresearch, Cat #016-030-084) and incubated for 40 minutes at 37° C. Plates were washed again using wash buffer. Finally, TMB was added and the reaction was stopped using 1M H₂SO₄, and the absorbance was read at 450 nm. Data was analyzed using Graphpad Prism software and IC₅₀ values were reported.

Assay [5] shares this target. Nature of the assay: capture ELISA, biotin-IL4Rα-his. The method, then: as §1
For the capture ELISA, 96-well micro plates were coated with 2 μg/ml goat anti-human IgG (AffiniPure Goat Anti-Human IgG, Fcγ fragment specific, Jackson Immunoresearch, Cat #109-005-098) instead of goat anti-mouse IgG Fey fragment, 100 μl/well.
The source holds these as a separate data set.

The target in assay [6] is T3, human IL4Rα expressed on 293F-IL4Rα …. Put plainly: flow cytometry, 293F-IL4Rα cells. The method, then: as §2
For assay [7] the target is unchanged. Put plainly: flow cytometry, 293F-IL4Rα cells. This is another data set of the same source.
Assay [8] deals with T4, marmoset monkey IL4Rα-his protein (marmoset monkey).
T4 construct: Custom made by Sino biological; no cleavage site stated; also called cal-IL4Rα-his; Cal-IL4Rα
T4 chain: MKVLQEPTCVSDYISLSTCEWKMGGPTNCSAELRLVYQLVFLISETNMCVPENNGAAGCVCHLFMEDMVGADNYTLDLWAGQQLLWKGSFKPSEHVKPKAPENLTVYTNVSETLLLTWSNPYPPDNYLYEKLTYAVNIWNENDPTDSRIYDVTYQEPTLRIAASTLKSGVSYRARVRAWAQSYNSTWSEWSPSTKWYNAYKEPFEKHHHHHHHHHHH
Nature of the assay: indirect ELISA, coated cal-IL4Rα-his.

Seven molecules from patent US20230105029A1 (CHIA TAI TIANQING PHARMACEUTICAL GROUP, published 2023) can be followed below.

Like-named read-outs stand apart in the source and are kept apart here.

B1: mouse antibody B1D2F7D3B5 (antibody, V domains shown)
VH: EVKLVESGGGLVKPGGSLKLSCAASGFTFSSYAMSWVRQTPEKRLEWVASISSGDSTYYLDSVKGRFTISRDNAMNILYLQMSSLRSEDTAVYYCERSGGSAPYWGQGTLVSVSA
VL: QIVLTQSPAIMSASPGEMVTISCSASSSVSYMYWYQQKPGSSPKPWIYRTSNLASGVPARFSGSGSGTSYSLTISSMEAEDAATYYCQQYHSFPLTFGAGTKLELK
notes: Mouse hybridoma mAb
By EC50 is commonly meant the concentration that produces a half-maximal response. As a reminder, the IC50 is the concentration at which inhibition is half-maximal. Consider B1, for which the EC50 in assay [1] was 0.06 nM; in assay [3], 0.246 nM. In addition, the binding result in assay [2] is “no binding (tested: 66.7 nM (highest concentration tested))”. In addition, the IC50 in assay [4] is 1.8 nM.

B2: mouse antibody B9D1D11F8D8 (antibody, V domains shown)
VH: EVKLVESGGGLVKPGGSLKLSCAASGFTFSSYAMSWVRQTPEKRLEWVASISSGDSTYYLDSVKGRFTISRDNARNILYLQVSSLRSEDTAMYYCERSGGSAPYWGQGTLVTVSA
VL: QIVLTQSPAIMSASPGDMVTISCSASSSVNYMYWYQQKPGSSPKPWIYRTSNLASGVPARFSGSGSGTSYSLTISSMEAEDAATYYCQQYHSFPLTFGAGTKLELK
notes: Mouse hybridoma mAb
For B2, the EC50 came out at 0.07 nM in assay [1] and 0.221 nM in assay [3]. Further, in assay [2], the binding result was “no binding (tested: 66.7 nM (highest concentration tested))”. For the same molecule, the 50% inhibitory concentration (IC50) in assay [4] was found to be 2.88 nM.

B3: mouse antibody C2C1A1A1 (antibody, V domains shown)
VH: EVQLVESGGGLVQPGGSLKLSCAASGFTFSTYGMSWVRQTPDKRLELVATINSNGGSTSYPDSVKGRFTISRDNAKNTLYLQMSSLKSEDTAMFYCARFFRFRNAMDYWGQGTSVTVSS
VL: DIQMTQSPASLSASVGETVTITCRTSENIYSYLAWYQQKQGKSPQFLVYNAKTLAEGVPSRFSGSGSGTQFSLNINSLQSEDFGSYYCQHYYGPPTWTFGGGTKLEIK
notes: Mouse hybridoma mAb; also called Mouse C2C1A1A1
Consider B3, for which the EC50 amounted to 0.08 nM in assay [1]; 0.03 nM in assay [5]; 0.31 nM in assay [6]; 0.33 nM in assay [2]; 0.159 nM in assay [3]. Moreover, the IC50 in assay [4] was determined as 0.81 nM.

B4: chimeric antibody C2C1A1A1 (antibody, human IgG4 S228P, kappa, V domains shown)
VH: EVQLVESGGGLVQPGGSLKLSCAASGFTFSTYGMSWVRQTPDKRLELVATINSNGGSTSYPDSVKGRFTISRDNAKNTLYLQMSSLKSEDTAMFYCARFFRFRNAMDYWGQGTSVTVSS
VL: DIQMTQSPASLSASVGETVTITCRTSENIYSYLAWYQQKQGKSPQFLVYNAKTLAEGVPSRFSGSGSGTQFSLNINSLQSEDFGSYYCQHYYGPPTWTFGGGTKLEIKR
notes: Mouse variable domains on human IgG4/kappa; also called Chimeric C2C1A1A1; chC2C1A1A1
For the molecule B4, the EC50 in assay [5] turned out to be 0.05 nM; in assay [6], 0.63 nM; in assay [7], 0.33 nM; in assay [8], 0.62 nM.

B5: mouse antibody C2B2F7B7 (antibody, V domains shown)
VH: EVQLVESGGGLVQPGGSLKLSCAASGFTFSTYGMSWVRQTPDKRLELVATINSNGGSTNYPDSVKGRFTISRDNAKNTLYLQMSSLKSEDTAMYYCARFFRIRNAMDYWGQGTSVTVSS
VL: DIQMTQSPASLSASVGETVTITCRASENIYSYLAWYQQKQGKSPQFLVYNAKTLAEGVPSRFSGSGSGTQFSLKINSLQPEDFGSYYCQHYYGTPTWTFGGGTKLEIK
notes: Mouse hybridoma mAb
In the case of B5, the results for the EC50 in assay [1], in assay [2] and in assay [3] were 0.13 nM, 108 nM and 0.183 nM, respectively. In addition, the 50% inhibitory concentration (IC50) in assay [4] turned out to be 0.73 nM.

B6: mouse antibody B8G11F2B7G5E8 (antibody, V domains shown)
VH: EVQLQQSGADLVRPGASVKLSCTASGFNIKDTYMHWVKQRPEQGLEWVGRIDPTNGYTIYASKFQGKATITADTSSNTAYMQLSSLTSGDTAVYHCVSRRPWFAYWGQGTLVTVSA
VL: DILMTQTPLSLPVSLGAQASISCRSSQSIVHSNGNTYLEWYLQKPGQSPKLLIYKVTNRFSGVPDRFSGSGSGTDFTLKISRVEAEDLGIYYCFQGSHVPYTFGGGTKLEIK
notes: Mouse hybridoma mAb; also called Mouse B8G11F2B7G5E8; mAb B8G11F2B7G5E8
In the case of B6, the concentration giving a half-maximal response (EC50) in assay [1] worked out at 0.04 nM; in assay [5] it was 0.14 nM; in assay [6], 0.41 nM; in assay [7], 0.33 nM; in assay [8], 0.87 nM; in assay [2] it was 0.29 nM. Further, in assay [3], the response was half-maximal at 0.251 nM (EC50). Moreover, the IC50 in assay [4] came out at 0.81 nM.

B7: chimeric antibody B8G11F2B7G5E8 (antibody, human IgG4 S228P, kappa, V domains shown)
VH: EVQLQQSGADLVRPGASVKLSCTASGFNIKDTYMHWVKQRPEQGLEWVGRIDPTNGYTIYASKFQGKATITADTSSNTAYMQLSSLTSGDTAVYHCVSRRPWFAYWGQGTLVTVSA
VL: DILMTQTPLSLPVSLGAQASISCRSSQSIVHSNGNTYLEWYLQKPGQSPKLLIYKVTNRFSGVPDRFSGSGSGTDFTLKISRVEAEDLGIYYCFQGSHVPYTFGGGTKLEIKR
notes: Mouse variable domains on human IgG4/kappa; also called Chimeric B8G11F2B7G5E8; chB8G11F2B7G5E8
Regarding B7, the EC50 in assay [5] was found to be 0.27 nM; in assay [6] it was 0.78 nM; in assay [7], 0.44 nM; in assay [8] it was 1.01 nM.
